Measurements: paper PMC4372114
“And” between values parts separate entries of the source, which are not always exact repeats. Equal entries are not always repeated.

Biological target: Recombinant human vascular endothelial growth factor receptor (VEGFR) (human) (UniProt P35968)
Assay: SPR

Sequence of UniProt P35968 (P35968 20-764): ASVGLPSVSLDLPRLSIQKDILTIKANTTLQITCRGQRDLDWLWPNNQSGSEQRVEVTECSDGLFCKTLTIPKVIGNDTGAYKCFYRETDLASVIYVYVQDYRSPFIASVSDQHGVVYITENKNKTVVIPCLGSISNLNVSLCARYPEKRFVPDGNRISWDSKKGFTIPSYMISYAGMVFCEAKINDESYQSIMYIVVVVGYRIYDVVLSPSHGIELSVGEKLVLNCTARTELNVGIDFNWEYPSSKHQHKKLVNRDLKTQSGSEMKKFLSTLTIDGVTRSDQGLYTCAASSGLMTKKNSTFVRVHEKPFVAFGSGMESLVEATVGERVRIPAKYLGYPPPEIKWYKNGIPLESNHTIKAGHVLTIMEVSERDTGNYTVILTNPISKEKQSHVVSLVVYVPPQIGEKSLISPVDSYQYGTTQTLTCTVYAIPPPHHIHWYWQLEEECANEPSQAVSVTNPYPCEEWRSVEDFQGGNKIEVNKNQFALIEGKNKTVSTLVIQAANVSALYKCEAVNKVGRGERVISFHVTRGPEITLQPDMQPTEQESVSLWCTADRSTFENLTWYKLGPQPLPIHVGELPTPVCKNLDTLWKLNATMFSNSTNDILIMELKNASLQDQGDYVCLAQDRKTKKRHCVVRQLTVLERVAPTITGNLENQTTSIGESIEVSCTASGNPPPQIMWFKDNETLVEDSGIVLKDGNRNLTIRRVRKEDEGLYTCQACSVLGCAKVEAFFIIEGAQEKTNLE

Row | SPR baseline shift | kon | Substance
1 | 60.2 mDeg and 69.3 mDeg and 57.4 mDeg | 83000 M⁻¹ s⁻¹ and 91000 M⁻¹ s⁻¹ and 82000 M⁻¹ s⁻¹ | Recombinant human vascular endothelial growth factor (VEGF) (from UniProt P15692 1-395) (ligand)
2 | 104 mDeg and 106 mDeg and 113 mDeg | – | VEGF released from living SKOV-3 cells (from UniProt P15692 1-395) (ligand)
